Results taken from PMC10996581 (The Journal of Cell Biology, 2024).
Where no end group is shown, it is not given here.

Columns and labels:
IRE1αLDΔ308–357 mutant [1] = molecular target: T1, IRE1αLDΔ308–357 mutant (human, UniProt O75460 24-443, Δ308–357); experiment: MST
T1 sequence: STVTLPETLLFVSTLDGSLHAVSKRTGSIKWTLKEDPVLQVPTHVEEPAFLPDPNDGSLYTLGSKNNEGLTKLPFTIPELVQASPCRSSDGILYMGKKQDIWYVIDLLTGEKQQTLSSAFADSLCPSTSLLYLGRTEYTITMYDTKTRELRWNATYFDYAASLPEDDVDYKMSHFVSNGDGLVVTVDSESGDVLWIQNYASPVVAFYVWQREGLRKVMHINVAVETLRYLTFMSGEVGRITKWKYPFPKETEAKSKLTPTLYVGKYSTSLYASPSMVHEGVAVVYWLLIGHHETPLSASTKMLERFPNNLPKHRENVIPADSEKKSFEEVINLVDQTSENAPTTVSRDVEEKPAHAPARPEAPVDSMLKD

IRE1αLDΔ308–357 mutant [2] = molecular target: T1, IRE1αLDΔ308–357 mutant; experiment: […]

Row | Binder | binding result (IRE1αLDΔ308–357 mutant [1]) | binding result (IRE1αLDΔ308–357 mutant [2])
1 | His6-CTxA1 (enzymatic A1 chain of the cholera toxin A subunit) (domain or fragment) NDDKLYRADSRPPDEIKQSGGLMPRGQSEYFDRGTQMNINLYDHARGTQTGFVRHDDGYVSTSISLRSAHLVGQTILSGHSTYYIYVIATAPNMFNVNDVLGAYSPHPDEQEVSALGGIPYSQIYGWYRVHFGVLDEQLHRNRGYRDRYYSNLDIAPAADGYGLAGFPPEHRAWREEPWIHHAPPGCGNAPRSS | binds | 
2 | IYGWYRVHFGVLDEQLHR (also: 5-FAM labelled, position not given here) [CTxA_(I124-R141) peptide, 5-FAM labelled] |  | binds
